{"source": "patent US8349318B2", "about": "“Use of specifically engineered enzymes to enhance the efficacy of prodrugs” (The Board of Trustees of the University of Illinois, priority 2008, dated 2013)", "origin": "cited, not measured here", "data": [{"molecule": "dNK: Drosophila melanogaster nucleoside kinase, SEQ ID NO:3 (protein, Drosophila melanogaster) MAEAASCARKGTKYAEGTQPFTVLIEGNIGSGKTTYLNHFEKYKNDICLLTEPVEKWRNVNGVNLLELMYKDPKKWAMPFQSYVTLTMLQSHTAPTNKKLKIMERSIFSARYCFVENMRRNGSLEQGMYNTLEEWYKFIEESIHVQADLIIYLRTSPEVAYERIRQRARSEESCVPLKYLQELHELHEDWLIHQRRPQSCKVLVLDADLNLENIGTEYQRSESSIFDAISSNQQPSPVLVSPSKRQRVAR", "values": [{"measurement": "kcat for dC phosphorylation", "setting": "Knecht et al., 2002", "result": 16.5, "unit": "s⁻¹"}, {"measurement": "efficiency for dC phosphorylation, higher than dCK", "setting": "compared with dCK", "result": "2,500 fold"}]}]}
